According to US20260167699A1 (Chugai, published 2026):
Where a chain is given by its changes, count along the chain named.

B1: GpH7-A5/GpH7-B3 variant H268_14T/GpL16-k0 (antibody, human IgG1, kappa)
heavy 1: not shown
heavy 2: not shown
light: DIVMTQSPLSLPVTPGEPASISCQASESLVHSNRNTYLHWYLQKPGQSPQLLIYKVSNRFSGVPDRFSGSGSGTDFTLKISRVEAEDVGVYYCSQNTHVPPTFGQGTKVEIERTVAAPSVFIFPPSDEQLKSGTASVVCLLNNFYPREAKVQWKVDNALQSGNSQESVTEQDSKDSTYSLSSTLTLSKADYEKHKVYACEVTHQGLSSPVTKSFNRGEC
B2: GpH7-A5/GpH7-B3 variant D270_14T/GpL16-k0 (antibody, human IgG1, kappa)
heavy 1: not shown
heavy 2: not shown
light: B1 light
B3: GpH7-A5/GpH7-B3 variant H268_07I/GpL16-k0 (antibody, human IgG1, kappa)
heavy 1: not shown
heavy 2: not shown
light: B1 light
B4: GpH7-A5/GpH7-B3 variant H268_06M/GpL16-k0 (antibody, human IgG1, kappa)
heavy 1: not shown
heavy 2: not shown
light: B1 light
B5: GpH7-A5/GpH7-B3 variant G236_09D/GpL16-k0 (antibody, human IgG1, kappa)
heavy 1: not shown
heavy 2: not shown
light: B1 light
B6: GpH7-A5/GpH7-B3 variant D270_08L/GpL16-k0 (antibody, human IgG1, kappa)
heavy 1: not shown
heavy 2: not shown
light: B1 light
B7: GpH7-A5/GpH7-B3 variant E269_01G/GpL16-k0 (antibody, human IgG1, kappa)
heavy 1: not shown
heavy 2: not shown
light: B1 light
B8: GpH7-A5/GpH7-B3 variant H268_04F/GpL16-k0 (antibody, human IgG1, kappa)
heavy 1: not shown
heavy 2: not shown
light: B1 light
B9: GpH7-A5/GpH7-B3 variant G236_02A/GpL16-k0 (antibody, human IgG1, kappa)
heavy 1: not shown
heavy 2: not shown
light: B1 light
B10: GpH7-A5/GpH7-B3 variant H268_01G/GpL16-k0 (antibody, human IgG1, kappa)
heavy 1: not shown
heavy 2: not shown
light: B1 light
B11: GpH7-A5/GpH7-B3 variant E269_14T/GpL16-k0 (antibody, human IgG1, kappa)
heavy 1: not shown
heavy 2: not shown
light: B1 light
B12: GpH7-A5/GpH7-B3 variant E269_02A/GpL16-k0 (antibody, human IgG1, kappa)
heavy 1: not shown
heavy 2: not shown
light: B1 light
B13: GpH7-A5/GpH7-B3 variant G236_13S/GpL16-k0 (antibody, human IgG1, kappa)
heavy 1: not shown
heavy 2: not shown
light: B1 light
B14: GpH7-A5/GpH7-B3 variant H268_03V/GpL16-k0 (antibody, human IgG1, kappa)
heavy 1: not shown
heavy 2: not shown
light: B1 light
B15: GpH7-A5/GpH7-B3 variant G236_20W/GpL16-k0 (antibody, human IgG1, kappa)
heavy 1: not shown
heavy 2: not shown
light: B1 light
B16: GpH7-A5/GpH7-B3 variant H268_05P/GpL16-k0 (antibody, human IgG1, kappa)
heavy 1: not shown
heavy 2: not shown
light: B1 light
B17: GpH7-A5/GpH7-B3 variant D270_10E/GpL16-k0 (antibody, human IgG1, kappa)
heavy 1: not shown
heavy 2: not shown
light: B1 light
B18: GpH7-A5/GpH7-B3 variant E269_13S/GpL16-k0 (antibody, human IgG1, kappa)
heavy 1: not shown
heavy 2: not shown
light: B1 light
B19: GpH7-A5/GpH7-B3 variant G236_10E/GpL16-k0 (antibody, human IgG1, kappa)
heavy 1: not shown
heavy 2: not shown
light: B1 light
B20: GpH7-A5/GpH7-B3 variant E269_09D/GpL16-k0 (antibody, human IgG1, kappa)
heavy 1: not shown
heavy 2: not shown
light: B1 light
B21: GpH7-A5/GpH7-B3 variant H268_02A/GpL16-k0 (antibody, human IgG1, kappa)
heavy 1: not shown
heavy 2: not shown
light: B1 light
B22: GpH7-A5/GpH7-B3 variant Y300_14T/GpL16-k0 (antibody, human IgG1, kappa)
heavy 1: not shown
heavy 2: not shown
light: B1 light
notes: He Ab; copies: 1 + 1 + 2
B23: GpH7-A5/GpH7-B3 variant Y300_20W/GpL16-k0 (antibody, human IgG1, kappa)
heavy 1: not shown
heavy 2: not shown
light: B1 light
notes: He Ab; copies: 1 + 1 + 2
B24: GpH7-A5/GpH7-B3 variant Y300_19Q/GpL16-k0 (antibody, human IgG1, kappa)
heavy 1: not shown
heavy 2: not shown
light: B1 light
notes: He Ab; copies: 1 + 1 + 2
B25: GpH7-A5/GpH7-B3 variant Y300_16H/GpL16-k0 (antibody, human IgG1, kappa)
heavy 1: not shown
heavy 2: not shown
light: B1 light
notes: He Ab; copies: 1 + 1 + 2
B26: GpH7-A5/GpH7-B3 variant Y300_18N/GpL16-k0 (antibody, human IgG1, kappa)
heavy 1: not shown
heavy 2: not shown
light: B1 light
notes: He Ab; copies: 1 + 1 + 2

target: T1, FcγRIa extracellular domain, His-tagged (human, UniProt P12314 16-292); experiment: SPR, vs GpH7-A5/GpH7-B3/GpL16-k0 =100
T1 construct: extracellular domain; also called 1a
T1 sequence (P12314 other isoform, or with tags, fused parts or gaps): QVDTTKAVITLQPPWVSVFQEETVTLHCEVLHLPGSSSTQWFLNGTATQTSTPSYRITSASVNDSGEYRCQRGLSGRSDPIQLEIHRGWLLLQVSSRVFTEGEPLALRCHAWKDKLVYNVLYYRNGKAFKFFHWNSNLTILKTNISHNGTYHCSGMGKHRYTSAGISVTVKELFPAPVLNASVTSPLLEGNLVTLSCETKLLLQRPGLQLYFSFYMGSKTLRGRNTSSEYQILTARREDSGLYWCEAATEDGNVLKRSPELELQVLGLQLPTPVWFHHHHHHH

| He/Con 1a | Binder |
| --- | --- |
| 108 % of control | B1 |
| 89.5 % of control | B2 |
| 104 % of control | B3 |
| 101 % of control | B4 |
| 95.5 % of control | B5 |
| 93.2 % of control | B6 |
| 101 % of control | B7 |
| 103 % of control | B8 |
| 99.1 % of control | B9 |
| 104 % of control | B10 |
| 102 % of control | B11 |
| 101 % of control | B12 |
| 96 % of control | B13 |
| 103 % of control | B14 |
| 104 % of control | B15 |
| 106 % of control | B16 |
| 104 % of control | B17 |
| 99.8 % of control | B18 |
| 92.6 % of control | B19 |
| 103 % of control | B20 |
| 105 % of control | B21 |

target: T2, FcγRIIa(R) extracellular domain, His-tagged (human, UniProt P12318 34-217); experiment: SPR, vs GpH7-A5/GpH7-B3/GpL16-k0 =100
T2 construct: extracellular domain; also called 2aR
T2 sequence: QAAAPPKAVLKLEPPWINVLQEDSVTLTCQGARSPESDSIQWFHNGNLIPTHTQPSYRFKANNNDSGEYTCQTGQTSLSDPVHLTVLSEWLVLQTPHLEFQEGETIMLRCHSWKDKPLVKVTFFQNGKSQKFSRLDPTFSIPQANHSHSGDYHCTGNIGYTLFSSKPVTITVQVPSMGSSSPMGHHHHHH

| He/Con 2aR | Binder |
| --- | --- |
| 100 % of control | B1 |
| 72.2 % of control | B2 |
| 102 % of control | B3 |
| 87.2 % of control | B4 |
| 105 % of control | B5 |
| 62.8 % of control | B6 |
| 70.3 % of control | B7 |
| 105 % of control | B8 |
| 145 % of control | B9 |
| 134 % of control | B10 |
| 71 % of control | B11 |
| 70.2 % of control | B12 |
| 135 % of control | B13 |
| 117 % of control | B14 |
| 77.3 % of control | B15 |
| 114 % of control | B16 |
| 85.7 % of control | B17 |
| 65.8 % of control | B18 |
| 124 % of control | B19 |
| 113 % of control | B20 |
| 143 % of control | B21 |

target: T3, FcγRIIa(H) extracellular domain, His-tagged (human, UniProt P12318 34-217); experiment: SPR, vs GpH7-A5/GpH7-B3/GpL16-k0 =100
T3 construct: extracellular domain; also called 2aH
T3 sequence: T2 sequence with R134H

| He/Con 2aH | Binder |
| --- | --- |
| 93.5 % of control | B1 |
| 81.3 % of control | B2 |
| 91.2 % of control | B3 |
| 85.8 % of control | B4 |
| 93.5 % of control | B5 |
| 81.8 % of control | B6 |
| 72.3 % of control | B7 |
| 112 % of control | B8 |
| 145 % of control | B9 |
| 100 % of control | B10 |
| 70.3 % of control | B11 |
| 78.7 % of control | B12 |
| 140 % of control | B13 |
| 100 % of control | B14 |
| 153 % of control | B15 |
| 82.7 % of control | B16 |
| 111 % of control | B17 |
| 70.7 % of control | B18 |
| 116 % of control | B19 |
| 105 % of control | B20 |
| 115 % of control | B21 |

target: T4, FcγRIIb extracellular domain, His-tagged (human, UniProt P31994 43-217); experiment: SPR, vs GpH7-A5/GpH7-B3/GpL16-k0 =100
T4 construct: extracellular domain; also called 2b
T4 sequence: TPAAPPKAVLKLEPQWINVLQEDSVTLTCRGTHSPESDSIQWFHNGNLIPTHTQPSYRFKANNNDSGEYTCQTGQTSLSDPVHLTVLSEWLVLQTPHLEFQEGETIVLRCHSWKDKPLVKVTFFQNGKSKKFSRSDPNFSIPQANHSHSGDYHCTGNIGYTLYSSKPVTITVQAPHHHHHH

| He/Con 2b | Binder |
| --- | --- |
| 90.3 % of control | B1 |
| 54.8 % of control | B2 |
| 93.4 % of control | B3 |
| 69 % of control | B4 |
| 174 % of control | B5 |
| 50.8 % of control | B6 |
| 54.1 % of control | B7 |
| 94.2 % of control | B8 |
| 101 % of control | B9 |
| 151 % of control | B10 |
| 53.2 % of control | B11 |
| 52.4 % of control | B12 |
| 101 % of control | B13 |
| 120 % of control | B14 |
| 60.7 % of control | B15 |
| 122 % of control | B16 |
| 72.5 % of control | B17 |
| 50.2 % of control | B18 |
| 115 % of control | B19 |
| 110 % of control | B20 |
| 175 % of control | B21 |

target: T5, FcγRIIIa extracellular domain, His-tagged (human, UniProt P08637 17-208); experiment: SPR, vs GpH7-A5/GpH7-B3/GpL16-k0 =100
T5 construct: extracellular domain; also called 3a
T5 sequence (P08637 other isoform, or with tags, fused parts or gaps): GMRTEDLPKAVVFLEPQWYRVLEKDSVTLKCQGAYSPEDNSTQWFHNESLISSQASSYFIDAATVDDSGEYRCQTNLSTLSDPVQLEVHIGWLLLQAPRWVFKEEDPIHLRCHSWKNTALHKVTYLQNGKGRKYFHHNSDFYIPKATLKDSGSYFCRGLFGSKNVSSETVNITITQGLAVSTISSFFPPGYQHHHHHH

| He/Con 3a | Binder |
| --- | --- |
| 90.3 % of control | B1 |
| 55.4 % of control | B2 |
| 84.1 % of control | B3 |
| 79.5 % of control | B4 |
| 66.2 % of control | B5 |
| 65.1 % of control | B6 |
| 61.6 % of control | B7 |
| 96 % of control | B8 |
| 77 % of control | B9 |
| 95.7 % of control | B10 |
| 59.7 % of control | B11 |
| 68 % of control | B12 |
| 60.3 % of control | B13 |
| 91.4 % of control | B14 |
| 126 % of control | B15 |
| 75.6 % of control | B16 |
| 112 % of control | B17 |
| 62.1 % of control | B18 |
| 65.8 % of control | B19 |
| 106 % of control | B20 |
| 121 % of control | B21 |

target: T6, FcγRIIIa extracellular domain, C-terminal His tag (human, UniProt P08637 17-208); experiment: SPR, binding activity relative to GpH7-A5/GpH7-B3/GpL16-k0 (=100)
T6 construct: extracellular domain; also called 3a
T6 sequence (P08637 other isoform, or with tags, fused parts or gaps): as above

| He/Con 3a [%] | Binder |
| --- | --- |
| 92.8 | B22 |
| 101 | B23 |
| 105 | B24 |
| 102 | B25 |
| 96 | B26 |
